# Measured values published in the RNAGym collection of RNA variant scans (doi:10.7554/elife.80360).
# B1: HDV Ribozyme (parent)
# chain: GGCCGGCAUGGUCCCAGCCUCCUCGCUGGCGCCGGCUGGGCAACAUUCCGAGGGGACCGUCCCCUCGGUAAUGGCGAAUGGGACCCA
# Variants of: B1
# Experiment: self-cleavage, relative activity (ratio to wild type); higher = more cleavage; co-transcriptional
row,Variant,self-cleavage
1,GGCCGGCAUGGUCCCAGCUCCCUCGCUGGCGCCGGCUGGGCAACAUUCCGAGGGGACCGUCCCCUCGGUAAUGGCGAAUGGGACCCA,0.145
2,GGCCGGCAUGGUCCCAGCCACCUCGCUGGCGCCGGCUGGGCAACAUUCCGAGGGGACCGUCCCCUCGGUAAUGGCGAAUGGAACCCA,0.0739
3,GGCCGGCAUGGUCCCAGCCACCUCGCUGGCGCCGGCUGGGCAACAUUCCGAGGGGACUGUCCCCUCGGUAAUGGCGAAUGGGACCCA,0.158
4,GGCCGGCAUGGUCCCAGCCACCUCGCUGGCGCCGGCUGGGCAACAUUCAGAGGGGACCGUCCCCUCGGUAAUGGCGAAUGGGACCCA,0
5,GGCCGGCAUGGUCCCAGCCACCUCGCUGGCGCCGGCUGGGCAACAUUCGGAGGGGACCGUCCCCUCGGUAAUGGCGAAUGGGACCCA,0.128
6,GGCCGGCAUGGUCCCAGCCACCUCGCUGGCGCCGGCUGGGCAACAUUCCGAGGGGACCGUACCCUCGGUAAUGGCGAAUGGGACCCA,0.111
7,GGCCGGCAUGGUCCCAGCCACCUCGCUGGCGCCGGCUGGGCACCAUUCCGAGGGGACCGUCCCCUCGGUAAUGGCGAAUGGGACCCA,0.0978
8,GGCCGGCAUGGUCCCAGCUUCCUCGCUGGCGCCGGCUGGGCAACAUUCCGAGGGGACCGUCCCCUCGGUAAUGGCGAAGGGGACCCA,0.0997
9,GGCCGGCAUGGUCCCAGCUUCCUCGCUGGCGCCGGCUGGGCAACAUUCCGAGGGGACCGUCCCCUCGGUAAUGGCGAAAGGGACCCA,0.0396
10,GGCCGGCAUGGUCCCAGCCACCUCGCUGGCGCCGGCUGGGCAACAUUCCGAGGGGACCGUCCCCUCGGUAGUGGCGAAUGGGACCCA,0.0665
11,GGCCGGCAUGGUCCCAGCCACCUCGCUGGCACCGGCUGGGCAACAUUCCGAGGGGACCGUCCCCUCGGUAAUGGCGAAUGGGACCCA,0.155
12,GGCCGGCAUGGUCCCAGCCACCUCGCUGGCGCCGGCUGGGCAACAUUCCGAGGGGACCGUCCCCUCGGUAAUGGAGAAUGGGACCCA,0.0923
13,GGCCGGCAUGGUCCCAGCUUCCUCGCUGGCGCCGGCUGGGCAACAUUCCGAGGGGACCGUCCCCUCCGUAAUGGCGAAUGGGACCCA,0.0715
14,GGCCGGCAUGGUCCCAGCCACCUCGCUGGCGCCGGCCGGGCAACAUUCCGAGGGGACCGUCCCCUCGGUAAUGGCGAAUGGGACCCA,0
15,GGCCGGCAUGGUCCCAGCUUCCUCGCUGGCGCCGGCUGGGCAACAUUCCGAGGGGACCGUCCCCUCGGUAAUAGCGAAUGGGACCCA,0.122
16,GGCCGGCAUGGUCCCAGCUUCCUCGCUGGCGCCGGCUGGGCAACAUUCCGAGGGGACCGUCCCCUCGGUAAUUGCGAAUGGGACCCA,0.12
17,GGCCGGCAUGGUCCCAGCUUCCUCGCUGGCGCCGGCUGGGCAACAUUCCGAGGGGACCGUCCCCUCGGUAAUCGCGAAUGGGACCCA,0.0479
18,GGCCGGCAUGGUCCCAGCCACCUCGCUGGCGCCGGCUGGGCAACAUUCCGAGGGGACCGUCCCCUUGGUAAUGGCGAAUGGGACCCA,0.0773
19,GGCCGGCAUGGUCCCAGCCACCUCGCUGGCGCCGGCUGGGCAACAUUCCGAGGGGUCCGUCCCCUCGGUAAUGGCGAAUGGGACCCA,0.0519
20,GGCCGGCAUGGUCCCAGCCACCUCGCUGGCGCAGGCUGGGCAACAUUCCGAGGGGACCGUCCCCUCGGUAAUGGCGAAUGGGACCCA,0
21,GGCCGGCAUGGUCCCAGCCACCUCGCUGGCGCCGGCUGGGCAACAUUCCGACGGGACCGUCCCCUCGGUAAUGGCGAAUGGGACCCA,0.0449
22,GGCCGGCAUGGUCCCAGCCACCCCGCUGGCGCCGGCUGGGCAACAUUCCGAGGGGACCGUCCCCUCGGUAAUGGCGAAUGGGACCCA,0

row,Variant,self-cleavage
1,GGCCGGCAUGGUCCCAGCCCCCUCGCUGGCGCCGGCUGGGCCACAUUCCGAGGGGACCGUCCCCUCGGUAAUGGCGAAUGGGACCCA,0.158
2,GGCCGGCAUGGUCCCAGCCACCUCGCUGGCGCCGGCUGGGCAACAUUCCGAGGGGACCGUCCCCUCGGUAAUGGCGAAUGCGACCCA,0.0449
3,GGCCGGCAUGGUCCCAGCCACCUCGCUGGCGCCGGCUCGGCAACAUUCCGAGGGGACCGUCCCCUCGGUAAUGGCGAAUGGGACCCA,0.119
4,GGCCGGCAUGGUCCCAGCCACCUCGCUGGCGCCGGCUGGGCAACAUUCCGAGGGGACCGUCACCUCGGUAAUGGCGAAUGGGACCCA,0.119
5,GGCCGGCAUGGUCCCAGCCACCUCGCUGGCGCCGGCUGGGCAACAUUCCGAGGGGACCGUCCCCUCGGUAACGGCGAAUGGGACCCA,0.0723
6,GGCCGGCAUGGUCCCAGCCACCUCGCUGGCGCCGGCUGGGCGACAUUCCGAGGGGACCGUCCCCUCGGUAAUGGCGAAUGGGACCCA,0
7,GGCCGGCAUGGUCCCAGCCACCUCGCUGGCGCCGGCUGAGCAACAUUCCGAGGGGACCGUCCCCUCGGUAAUGGCGAAUGGGACCCA,0.133
8,GGCCGGCAUGGUCCCAGCUUCCUCGCUGGCGCCGGCUGGGCAACAUUCCGAGGGGACCGUCCCCUCGGUAAUGGCGAAUGGAACCCA,0.0511
9,GGCCGGCAUGGUCCCAGCUUCCUCGCUGGCGCCGGCUGGGCAACAUUCCGAGGGGACCGUCCCCUCGGUAAUGGCGAAUGGCACCCA,0.0817
10,GGCCGGCAUGGUCCCAGCUUCCUCGCUGGCGCCGGCUGGGCAACAUUCCGAGGGUACCGUCCCCUCGGUAAUGGCGAAUGGGACCCA,0.0573
11,GGCCGGCAUGGUCCCAGCUUCCUCGCUGGCGCCGGCUGGGCAACAUUCCGAGUGGACCGUCCCCUCGGUAAUGGCGAAUGGGACCCA,0.215
12,GGCCGGCAUGGUCCCAGCCACCUCGCUGGCGCCGGCUGGGCAACAAUCCGAGGGGACCGUCCCCUCGGUAAUGGCGAAUGGGACCCA,0.0594
13,GGCCGGCAUGGUCCCAGCCACCUCGCUGGCGCCGGCUGGUCAACAUUCCGAGGGGACCGUCCCCUCGGUAAUGGCGAAUGGGACCCA,0.0627
14,GGCCGGCAUGGUCCCAGCUUCCUCGCUGGCGCCGGCUGGGCAACAUUCCGAGGGGACCGUCCCCUCGGUAAUGGCAAAUGGGACCCA,0.197
15,GGCCGGCAUGGUCCCAGCCAACUCGCUGGCGCCGGCUGGGCAACAUUCCGAGGGGACCGUCCCCUCGGUAAUGGCGAAUGGGACCCA,0.0536
16,GGCCGGCAUGGUCCCAGCCAGCUCGCUGGCGCCGGCUGGGCAACAUUCCGAGGGGACCGUCCCCUCGGUAAUGGCGAAUGGGACCCA,0.256
17,GGCCGGCAUGGUCCCAGCUUCCUCGCUGGCGCCGGCUGGGCAACAUUCCGAGGGGACCGUCCCCUCGGUAAGGGCGAAUGGGACCCA,0.0396
18,GGCCGGCAUGGUCCCAGCUUCCUCGCUGGCGCCGGCUGGGCAACAUUCCGAUGGGACCGUCCCCUCGGUAAUGGCGAAUGGGACCCA,0.265
19,GGCCGGCAUGGUCCCAGCUUCCUCGCUGGCGCCGGCUGGGCAACAUUCCGAAGGGACCGUCCCCUCGGUAAUGGCGAAUGGGACCCA,0.137
20,GGCCGGCAUGGUCCCAGCCACCUCGCUGGCGCCGGCUGGGCAACAUUUCGAGGGGACCGUCCCCUCGGUAAUGGCGAAUGGGACCCA,0
21,GGCCGGCAUGGUCCCAGCCACCUCGCUGGCGCCGGCUGGGCAACAUUCCGAGGGGACCGUCCCCUCGGUAAUGGCGAAUGGGACGCA,0.107
22,GGCCGGCAUGGUCCCAGCCACCUAGCUGGCGCCGGCUGGGCAACAUUCCGAGGGGACCGUCCCCUCGGUAAUGGCGAAUGGGACCCA,0.0415

row,Variant,self-cleavage
1,GGCCGGCAUGGUCCCAGCCACCUUGCUGGCGCCGGCUGGGCAACAUUCCGAGGGGACCGUCCCCUCGGUAAUGGCGAAUGGGACCCA,0.162
2,GGCCGGCAUGGUCCCAGCCACCUCGCUGGCGCCGGCUGGGCAACUUUCCGAGGGGACCGUCCCCUCGGUAAUGGCGAAUGGGACCCA,0
3,GGCCGGCAUGGUCCCAGCCACCUCGCUGGCGGCGGCUGGGCAACAUUCCGAGGGGACCGUCCCCUCGGUAAUGGCGAAUGGGACCCA,0.111
4,GGCCGGCAUGGUCCCAGCUUCCUCGCUGGCGCCGGCUGGGCAACAUUCCGAGGGGACCAUCCCCUCGGUAAUGGCGAAUGGGACCCA,0.145
5,GGCCGGCAUGGUCCCAGCCACCUCGCCGGCGCCGGCUGGGCAACAUUCCGAGGGGACCGUCCCCUCGGUAAUGGCGAAUGGGACCCA,0
6,GGCCGGCAUGGUCCCAGCCACCUCGCUGGCGCCGGCUGGGCAACAUUCCGAGGGGACCGUCCGCUCGGUAAUGGCGAAUGGGACCCA,0
7,GGCCGGCAUGGUCCCAGCCACCUCGCUGGCGCCGUCUGGGCAACAUUCCGAGGGGACCGUCCCCUCGGUAAUGGCGAAUGGGACCCA,0.0437
8,GGCCGGCAUGGUCCCAGCCACCUCGCUGGCGCCGACUGGGCAACAUUCCGAGGGGACCGUCCCCUCGGUAAUGGCGAAUGGGACCCA,0.158
9,GGCCGGCAUGGUCCCAGCCACCUCGCUGGCGCCGCCUGGGCAACAUUCCGAGGGGACCGUCCCCUCGGUAAUGGCGAAUGGGACCCA,0.122
10,GGCCGGCAUGGUCCCAGCCACCUCGCUGGCGCCGGCUGGGCAACAUUCCGAGGGGACCGUCCCCUCGGUAAUGGCGAAUAGGACCCA,0.0712
11,GGCCGGCAUGGUCCCAGCCACCUCGCUGCCGCCGGCUGGGCAACAUUCCGAGGGGACCGUCCCCUCGGUAAUGGCGAAUGGGACCCA,0.128
12,GGCCGGCAUGGUCCCAGCUUCCUCGCUGGCGCCGGCUGGGCAACAUUCCGAGGGGACCGUCCCCUCGGUAAUGUCGAAUGGGACCCA,0.0762
13,GGCCGGCAUGGUCCCAGCCACCUCGCUGGCGCCGGCUGGGCAACAUCCCGAGGGGACCGUCCCCUCGGUAAUGGCGAAUGGGACCCA,0.0594
14,GGCCGGCAUGGUCCCAGCCACCUCGCUGGCGCCGGCUGGGCAACAUACCGAGGGGACCGUCCCCUCGGUAAUGGCGAAUGGGACCCA,0.104
15,GGCCGGCAUGGUCCCAGCCACCUCGCUGGCGCCGGCUGGGCAACAUUCCGAGGGGACCGUCCCCUCGGUAAUUGCGAAUGGGACCCA,0.0354
16,GGCCGGCAUGGUCCCAGCCACCUCGCUGGCGCCGGCUGGGCAACAUUCCGAGGGGACCGUCCCCUCGGUAAUCGCGAAUGGGACCCA,0.0615
17,GGCCGGCAUGGUCCCAGCCACCUCGCUGGCGCCGGCUGGGCAACAUUCCGAGGGGACCGACCCCUCGGUAAUGGCGAAUGGGACCCA,0.142
18,GGCCGGCAUGGUCCCAGCCACAUCGCUGGCGCCGGCUGGGCAACAUUCCGAGGGGACCGUCCCCUCGGUAAUGGCGAAUGGGACCCA,0.0898
19,GGCCGGCAUGGUCCCAGCCACCUCGCUGGCGCCGGCUGGGCAACAUUCCGAGGGAACCGUCCCCUCGGUAAUGGCGAAUGGGACCCA,0.0959
20,GGCCGGCAUGGUCCCAGCUUCCCCGCUGGCGCCGGCUGGGCAACAUUCCGAGGGGACCGUCCCCUCGGUAAUGGCGAAUGGGACCCA,0
